Series [1] deals with pL αSyn71–82 (protein L W47Y I60F N14C scaffold with αSyn residues 71–82 inserted in the extended β3‐β4 loop). Nature of the series: single molecule force spectroscopy (AFM); pL constructs coupled through Cys14 to maleimide‐PEG on both the AFM tip and the surface; retraction 1 μm s^-1 (1000 nm s^-1), approach 2 µm s^-1; 20 mM HEPES pH 7.5, room temperature; triplicate.
For series [2] the target is unchanged. Nature of the series: native MS; ESI–MS of 100 μM pL constructs in 100 mM ammonium acetate pH 6.8, equal volumes mixed for heterodimers; after quiescent incubation for 4 h at 25°C.
The target is the same in series [3]. Nature of the series: dynamic force spectroscopy (AFM); pL αSyn71–82 on AFM tip and surface; retraction speeds 200 to 5000 nm s^-1; Bell‐Evans fit, dissociation rate constant in the absence of force; 20 mM HEPES pH 7.5, room temperature.
In series [4] the target is pL γSyn71–82 (protein L W47Y I60F N14C scaffold with γSyn residues 71–82 inserted in the extended β3‐β4 loop). Nature of the series: native MS; ESI–MS of 100 μM pL constructs in 100 mM ammonium acetate pH 6.8, equal volumes mixed for heterodimers; after quiescent incubation for 4 h at 25°C.
Series [5] deals with the molecule itself. As to the kind of experiment: native MS; ESI–IMS–MS of synthetic peptides alone and in a 1:1 mixture; 100 μM final in 100 mM ammonium acetate pH 6.8.
The target in series [6] is T1, αSyn71–82 synthetic peptide.
T1 peptide: Ac-VTGVTAVAQKTV-NH2
As to the kind of experiment: cell-based or functional assay.

The target of series [7] is T2, αSyn71–82 synthetic peptide.
T2 chain: VTGVTAVAQKTV
Nature of the series: native MS; ESI–IMS–MS of synthetic peptides alone and in a 1:1 mixture; 100 μM final in 100 mM ammonium acetate pH 6.8. The following applies: remark: other sources report otherwise.

Broadly, the stoichiometry N is the number of molecules, sites or subunits per partner or assembly. The koff is a measure of how fast the partners let go of each other. In series [1], “pL αSyn71–82 (protein L W47Y I60F N14C scaffold with αSyn residues 71–82 inserted in the extended β3‐β4 loop)” gave a hit rate of 4% and a rupture force (F R) of 57 pN. In series [2], the stoichiometry N was less than 3. Besides, in series [3], the koff was 0.18 s⁻¹ and the lifetime was 6 s.
In the case of “pL γSyn71–82 (protein L W47Y I60F N14C scaffold with γSyn residues 71–82 inserted in the extended β3‐β4 loop)”, in series [1], the hit rate (frequency of detection) stood at 3.2% and the rupture force (F R) amounted to 53 pN. Also, the stoichiometry N in series [4] came to 2.

B1: γSyn71–82 synthetic peptide (peptide)
peptide: Ac-VSSVNTVATKTV-NH2
notes: γ‐synuclein, central NAC region, residues 71–82; also called central NAC region of γSyn; source: bought: Genscript, synthetic peptide, >99% purity
On to B1, for which, in series [5], the “stoichiometry N” value is not above 14. In series [6], the “increase in lag‐time of ThT fluorescence of the 1:1 peptide mixture compared with αSyn71–82 alone” value came out at 2.5 fold and the “increase in lag‐time of ThT fluorescence of the 1:1 peptide mixture compared with γSyn71–82 alone” value was 5.7 fold.
Turning to Ac-VTGVTAVAQKTV-NH2 [αSyn71–82 synthetic peptide], in series [7], the stoichiometry N was less than 14.

These data come from paper PMC6032367, “A peptide‐display protein scaffold to facilitate single molecule force studies of aggregation‐prone peptides” (Protein Science : A Publication of the Protein Society, 2018).
